Experimental data published in patent US20150322137A1 (EVEC, published 2015).

How the values were obtained:
Assay in all cases: cell-based or functional assay
[1] = target: T1, F protein of human metapneumovirus strain JPS02-76 (type B1), on infectious virus (human metapneumovirus, strain JPS02-76 …, UniProt Q6WB98 19-539)
[2] = target: T1, F protein of human metapneumovirus …; remark: listed apart in the source
[3] = target: T2, F protein of human metapneumovirus strain JPS05-21 (type B2), on infectious virus (human metapneumovirus, strain JPS05-21 …)
[4] = target: T3, F protein of human metapneumovirus strain JPS03-178 (type A2), on infectious virus (human metapneumovirus, strain JPS03-178 …)
[5] = target: T4, F protein of human metapneumovirus strain JPS03-180 (type A1), on infectious virus (human metapneumovirus, strain JPS03-180 …)
[6] = target: T1, F protein of human metapneumovirus …; remark: listed apart in the source
[7] = target: T2, F protein of human metapneumovirus …; remark: listed apart in the source
[8] = target: T4, F protein of human metapneumovirus …; remark: listed apart in the source
[9] = target: T2, F protein of human metapneumovirus …; remark: listed apart in the source
[10] = target: T3, F protein of human metapneumovirus …; remark: listed apart in the source
[11] = target: T4, F protein of human metapneumovirus …; remark: listed apart in the source
[12] = target: T1, F protein of human metapneumovirus …; remark: listed apart in the source
[13] = target: T2, F protein of human metapneumovirus …; remark: listed apart in the source
[14] = target: T3, F protein of human metapneumovirus …; remark: listed apart in the source
[15] = target: T4, F protein of human metapneumovirus …; remark: listed apart in the source

Row | Binder | IC50, cell-to-cell spread inhibitory activity (LLC-MK2 cells stably expressing TMPRSS2) [1] [ng/mL] | IC90, cell-to-cell spread inhibitory activity (LLC-MK2 cells stably expressing TMPRSS2) [1] [ng/mL] | IC60, neutralizing activity (hMPV infection of LLC-MK2 cells; GraphPad Prism 6) [2] [ng/mL] | IC60, neutralizing activity (hMPV infection of LLC-MK2 cells; GraphPad Prism 6) [3] [ng/mL] | IC60, neutralizing activity (hMPV infection of LLC-MK2 cells; GraphPad Prism 6) [4] [ng/mL] | IC60, neutralizing activity (hMPV infection of LLC-MK2 cells; GraphPad Prism 6) [5] [ng/mL] | IC50, neutralizing activity (hMPV infection of LLC-MK2 cells) [6] [µg/mL] | IC50, neutralizing activity (hMPV infection of LLC-MK2 cells) [7] [µg/mL] | IC50, neutralizing activity (hMPV infection of LLC-MK2 cells) [8] [µg/mL] | IC50, neutralizing activity (hMPV infection of LLC-MK2 cells; GraphPad Prism 6) [9] [ng/mL] | IC50, neutralizing activity (hMPV infection of LLC-MK2 cells; GraphPad Prism 6) [10] [ng/mL] | IC50, neutralizing activity (hMPV infection of LLC-MK2 cells; GraphPad Prism 6) [11] [ng/mL] | IC90, neutralizing activity (hMPV infection of LLC-MK2 cells; GraphPad Prism 6) [12] [ng/mL] | IC90, neutralizing activity (hMPV infection of LLC-MK2 cells; GraphPad Prism 6) [13] [ng/mL] | IC90, neutralizing activity (hMPV infection of LLC-MK2 cells; GraphPad Prism 6) [14] [ng/mL] | IC90, neutralizing activity (hMPV infection of LLC-MK2 cells; GraphPad Prism 6) [15] [ng/mL]
1 | EV046141 (antibody, human IgG1, lambda, V domains shown) VH: QVQLVQSGAEVKKPGASVKVSCKASGYTFADYYIHWLRQAPGQGLEWLGRINPSNSRTTYPQKFQGRVTVTRDTSTSTVYMELSSLRSADTAVYYCARDGLRMGYYYMDVWGKGTTVTVSS VL: QSVLTQPPSVSGAPGQRVTISCTGSSSNIGAGYDVHWYQQIPGTAPKLLIFGNYNRPSGVPDRFSASKSGTSASLAITGLQAEDEAHYYCQSYDTTLDGAVFGGGTKLTVLG | 36.3 | 171 | 883 | 571 | 2180 | 276 | 0.74 | 0.44 | 0.2 | 524 | 2110 | 214 | 2180 | 836 | 2520 | 863
2 | EV046142 (antibody, human IgG1, lambda, V domains shown) VH: QVQLVQSGAEVKKPGSSVRVSCKASGGTFSTYGINWVRQARGQGLEWMGTVIPTFEKTYYAQGFQGRVTIAADGSKNTVYMELRRLTSEDSAIYFCTRFFTPYCSGGSCYLDLWGPGTLVTVSS VL: QSVLTQPPSVSGAPGQSVTISCAGSSSNIGAGYDVHWYQHLPGTAPRLLIYSNTNRPSGVPDRFSGSKSGASASLAITGLQAEDEADYYCQSYDSGVVFGGGTKLTVLR | 12.3 | 66.4 | 641 | 366 | 97.1 | 243 | 0.42 | 0.22 | 0.22 | 273 | 61.4 | 212 | 1570 | 1350 | 738 | 443
3 | EV046135 (antibody, human IgG1, lambda, V domains shown) VH: QEQLVESGGDLVKPGGSLRITCAASGFTLSGYALVWVRQAPGRGLEWIADITASSTYINYAASVKGRFTISRDNAQSSLFLQMSSLRADDTGVYFCARLPHLPGFFDLWGRGTLVSVSS VL: QSVLTQPPSVSGAPGQRVTISCTGNSSNIGAGYDVNWYQHLPGTAPKLLISVNTNRPSGVPDRFSGSMSGTSASLAITGLQAEDEADYYCQSYDRRLSGYVFGTGTKVTVLG | 30.8 | 230 | 571 | 268 | 47.1 | 440 | 0.37 | 0.22 | 0.35 | 213 | 31.6 | 348 | 1440 | 748 | 277 | 1240
4 | EV046136 (antibody, human IgG1, kappa, V domains shown) VH: QVQLVQSGAEMKKPGASVKVSCKASGYTFTDYFIHWVRQAPGQGLEWMGWVNPNSGATNYAQKFQGRVTMTGDTSLSAAYVDLSRLSSDDSAVYYCARDRGLGISSTRNDAFDIWGQGTTVTVSS VL: DIQLTQSPSSLSASVGDRVTITCQPSQGIRNFLNWYQQKPGKAPNLLIYDASNLETGVASRFSGSGSGTHFTLTISSLQPEDIATYFCQQYHSLPLTFGGGTKVEIKR | 52.2 | 212 | 419 | 670 | 358 | 358 | 0.31 | 0.46 | 0.29 | 537 | 318 | 318 | 895 | 1780 | 605 | 605
5 | EV046147 (antibody, human IgG1, lambda, V domains shown) VH: QVQLVQSGAEVKKPGASVKVSCKASGYTFSVYGISWVRQAPGHGLEWMGWISAYNGDRGYAQKVQGRITMTTDTSASTAYMELRSLTSDDTAVYYCATTSSGVPGIYWGQGSLVTVSS VL: SYALVQPPSVSVSPGQTARITCFGPALPKKYAYWYQHKSGQAPMLVIYEDTKRPSGIPQRFSGSTSGATATLTIRGAQVEDEADYYCYSTDSSGHERVFGGGTKLTVLG | 114 | 506 | 514 | 298 | 2060 | 406 | 0.39 | 0.27 | 0.31 | 253 | 1980 | 326 | 1180 | 612 | 2410 | 1070
6 | EV046143 (antibody, human IgG1, kappa, V domains shown) VH: QVQLVQSGAEVQKPGSSVKVSCKTSGDTFNNYALSWVRQAPGQGPEWMGRIIPLVEMANYAQKFQGRVTITADKSTTTIYMELSSLRSEDTAMYYCARDGYQGGFPYFFDSWGQGTLVTVSS VL: EVVLTQSPGTLSLSPGERATLSCRASQSVSNYLAWYQQKPGQAPRLLISAASSRATGIPDRFGGSGSGADFTLTISRLEPEDFAVYYCQQYGFSPGTFGQGTKVEIRR | 57.2 | 886 | 627 | 363 | 26.6 | 186 | 0.46 | 0.27 | 0.13 | 272 | 19.8 | 157 | 734 | 1300 | 96.7 | 402
